# Results as given in patent publication US6988446B2, “Purified nitric oxide synthase” (priority 1996, dated 2006).
# Where two headings read alike, the source gives them in different places. Marks after values point to notes of the source that are not given here. Non-standard residues stand in square brackets, D forms with d. No end group written: not given here. 2Thi = N[C@@H](Cc1cccs1)C(=O)O
# Legend:
# nNOS = nNOS (Rattus norvegicus, UniProt P29476); conditions: cited from earlier work
# nNOS-II [1] = target: T1, nNOS-II (Rattus norvegicus, UniProt P29476); assay: Kinetic determinations (KM, Vmax, Ki) with the standard enzyme assay; format: biochemical
# T1 sequence (P29476 whole entry): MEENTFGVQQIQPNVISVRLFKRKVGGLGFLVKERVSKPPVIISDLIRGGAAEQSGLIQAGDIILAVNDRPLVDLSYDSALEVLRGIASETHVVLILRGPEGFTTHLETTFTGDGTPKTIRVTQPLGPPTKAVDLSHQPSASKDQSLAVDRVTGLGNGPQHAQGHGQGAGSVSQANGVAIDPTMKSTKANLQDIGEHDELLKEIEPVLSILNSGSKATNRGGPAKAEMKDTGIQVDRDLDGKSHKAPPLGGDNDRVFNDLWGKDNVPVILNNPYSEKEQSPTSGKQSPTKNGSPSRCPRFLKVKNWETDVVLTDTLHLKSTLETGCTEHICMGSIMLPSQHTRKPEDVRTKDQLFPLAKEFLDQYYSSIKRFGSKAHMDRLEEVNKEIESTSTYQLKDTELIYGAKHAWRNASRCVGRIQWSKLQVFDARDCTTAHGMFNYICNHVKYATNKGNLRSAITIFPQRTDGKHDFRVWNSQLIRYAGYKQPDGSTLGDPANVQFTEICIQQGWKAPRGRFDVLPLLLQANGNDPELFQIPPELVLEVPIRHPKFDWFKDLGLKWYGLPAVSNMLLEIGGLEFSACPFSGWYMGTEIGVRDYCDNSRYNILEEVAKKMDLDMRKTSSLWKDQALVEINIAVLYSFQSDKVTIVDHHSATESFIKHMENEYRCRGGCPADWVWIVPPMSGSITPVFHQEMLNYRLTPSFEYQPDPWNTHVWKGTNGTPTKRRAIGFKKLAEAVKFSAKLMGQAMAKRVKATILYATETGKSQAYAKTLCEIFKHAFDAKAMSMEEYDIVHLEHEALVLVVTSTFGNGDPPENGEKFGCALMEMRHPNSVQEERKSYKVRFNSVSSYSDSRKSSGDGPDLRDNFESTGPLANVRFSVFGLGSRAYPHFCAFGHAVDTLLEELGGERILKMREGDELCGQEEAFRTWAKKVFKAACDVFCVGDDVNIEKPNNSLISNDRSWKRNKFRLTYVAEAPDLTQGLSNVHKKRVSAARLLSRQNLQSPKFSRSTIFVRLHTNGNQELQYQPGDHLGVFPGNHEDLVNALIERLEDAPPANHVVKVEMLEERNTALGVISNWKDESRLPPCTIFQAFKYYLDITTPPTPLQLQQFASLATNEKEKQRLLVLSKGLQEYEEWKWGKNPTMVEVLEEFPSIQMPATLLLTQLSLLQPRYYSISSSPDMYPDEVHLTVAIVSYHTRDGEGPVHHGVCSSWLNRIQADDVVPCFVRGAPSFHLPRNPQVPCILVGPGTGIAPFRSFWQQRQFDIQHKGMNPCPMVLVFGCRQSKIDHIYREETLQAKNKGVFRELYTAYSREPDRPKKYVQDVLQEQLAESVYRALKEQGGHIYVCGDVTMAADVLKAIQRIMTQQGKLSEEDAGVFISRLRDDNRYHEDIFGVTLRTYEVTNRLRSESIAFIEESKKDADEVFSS
# Method: (§1) NOS Activity Assay: NOS activity was determined spectrophotometrically by the rapid and quantitative oxidation of oxyhemoglobin to methemoglobin (Feelish et al., Eur. J. Pharmacol. 139:19-30 (1987); Olken et al., Biochem. Biophys. Res. Commun. 177:828-833 (1991)).
# (§2) Thus, reaction mixtures for NOS assays containing 50 mM Tris-HCl buffer (pH 7.5), were optimized to contain 4 μM oxyhemoglobin, 100 μM NADPH, 1 mM CaCl2, 10 μM FAD, 10 μM FMN, 20 μM BH4, 150 μM DTT, 100 μM BK or L-arginine and 0.1-3 μg enzyme in a final volume of 0.5 mL.
# (§3) Thus, calmodulin (10 μg/mL) was added to the reaction mixtures when L-arginine was used as substrate.
# Kinetic data were calculated by fitting experimental data to the EZ-FIT program (Perrella, Anal. Biochem. 174.437-447 (1988)).
# (§4) NOS activity assay. NOS activity was determined spectrophotometrically by the rapid and quantitative oxidation of oxyhemoglobin to methemoglobin (10,11). Optimized reaction mixtures for NOS assays contained 50 mM Tris-HCl buffer (pH 7.5), and were optimized to contain 4 μM oxyhemoglobin, 100 μM NADPH, 1 mM CaCl2, 10 μM FAD, 10 μM FMN, 20 μM BH. 150 μM DTT, 100 μM BK or L-arginine and 0.1-3 μg enzyme in a final volume of 0.5 ml. Calmodulin (10 μg/ml) was added to the reaction mixtures when L-arginine was used as substrate.
# Kinetic determinations. Kinetic experiments were conducted using the standard enzyme assay described above. […] Kinetic data were calculated by fitting experimental data to EZ-FIT program (12).
# nNOS-II [2] = target: T1, nNOS-II; assay: Standard NOS enzyme assay (oxyhemoglobin to methemoglobin), peptides as substrates, initial velocity; format: biochemical; set-up: decrease of activity as substrate: concentration or dose not given beside the values; conditions: for relative activity as substrate for nNOS-II (in words): comparator (arginine or BK)
# Method: as §1, §2, §3, §4
# [3] = Table 3, substrate 100 μM (poly-arginine 5 μg/ml), purified nNOS-II 0.2 μg, activity for arginine = 100%, means of three measurements
# [4] = substrate 100 μM (poly-arginine 5 μg/ml), purified nNOS-II 0.2 μg, activity for arginine = 100%, means of three measurements
molecule,measurement,setting,value
N=C(N)NCCC[C@H](N)C(=O)O [L-arginine],Km,"nNOS; previously described nNOS (Bredt et al.), read-out: reported KM for nNOS",2 µM
same,apparent Vmax for nNOS,"nNOS; previously described nNOS, L-arginine as substrate",0.96 μmol/min/mg protein
same,apparent Vmax,"nNOS-II [1]; substrate of nNOS-II, calmodulin added when L-arginine is substrate",0.85 μmol/min/mg protein
same,Relative Activity (%),nNOS-II [2],100^c %
same,Relative activity (%),nNOS-II [2],100^c %
Arg-Pro-Pro-Gly-Phe (RPPGF; rat) [BK fragment 1-5],Relative activity (%),nNOS-II [2]; [3],61%
same,Relative Activity (%),nNOS-II [2]; [4],61%
same,activity of that for BK,"nNOS-II [2]; text of Example 2, relative to BK",about 50%
Arg-Pro-Pro-Gly-Phe-Ser-Pro-Phe (APPGFSPF; rat) [Des-Arg^9-BK],Relative activity (%),nNOS-II [2]; [3],180%
same,Relative Activity (%),nNOS-II [2]; [4],180%
same,relative activity as substrate for nNOS-II (in words),nNOS-II [2]; text of Example 2,about one-fold higher than that of arginine
ISRPPGFSPFR [Ile-Ser-BK],Relative activity (%),nNOS-II [2]; [3],110%
same,Relative Activity (%),nNOS-II [2]; [4],110%
KPPGFSPFR [[Lys^1]-BK],Relative activity (%),nNOS-II [2]; [3],113%
same,Relative Activity (%),nNOS-II [2]; [4],113%
Lys-Arg-Pro-Pro-Gly-Phe-Ser-Pro-Phe-Arg [Lys-BK],Relative Activity (%),nNOS-II [2],116%
same,Relative activity (%),nNOS-II [2],116%
same,relative activity as substrate for nNOS-II (in words),nNOS-II [2]; text of Example 2,almost the same activity
Met-Lys-Arg-Pro-Pro-Gly-Phe-Ser-Pro-Phe-Arg [Met-Lys-BK],Relative Activity (%),nNOS-II [2],0%
same,Relative activity (%),nNOS-II [2],0%
same,relative activity as substrate for nNOS-II (in words),nNOS-II [2]; text of Example 2,no activity at all
PPGFSP [BK fragment 2-7],Relative activity (%),nNOS-II [2]; [3],0%
same,Relative Activity (%),nNOS-II [2]; [4],0%
PPGFSPFR [Des-Arg^1-BK],Relative activity (%),nNOS-II [2]; [3],94%
same,Relative Activity (%),nNOS-II [2]; [4],94%
same,relative activity as substrate for nNOS-II (in words),nNOS-II [2]; text of Example 2,activity similar to that of arginine
Poly-arginine,Relative Activity (%),nNOS-II [2],30%
same,Relative activity (%),nNOS-II [2],30%
same,activity for nNOS-II comparing to that of arginine,nNOS-II [2],30%
RPPGFSP [BK fragment 1-7],Relative activity (%),nNOS-II [2]; [3],80%
same,Relative Activity (%),nNOS-II [2]; [4],80%
same,decrease of activity as substrate,"nNOS-II [2]; text of Example 2, comparator not stated",30%
RPPGFSPFR [BK],Relative activity (%),nNOS-II [2]; [3],125%
same,Relative Activity (%),nNOS-II [2]; [4],125%
"[N-adamantaneacetyl-D-Arg^0, Hyp^3, Thi^5,8, D-Phe^7]-BK",Ki,"nNOS-II [1]; nNOS-II with BK as substrate, competitive inhibition, read-out: apparent Ki",2500 nM
"[Thi^5,8, D-Phe^7]-BK (RPPG[2Thi]S[dF][2Thi]R)",effect on nNOS-II activity,nNOS-II [1]; concentration range of 0.5-100 μM,no effect
same,effect on nNOS-II activity,nNOS-II [1]; concentration range of 0.5-100 mM,no effect
